Source: publication PMC2912425 (Biochemistry, 2010)

B1: 6xHis Cytohesin-1_(2-244) (domain or fragment, human, UniProt Q15438 2-244, looked up)
chain: EEDDSYVPSDLTAEERQELENIRRRKQELLADIQRLKDEIAEVANEIENLGSTEERKNMQRNKQVAMGRKKFNMDPKKGIQFLIENDLLKNTCEDIAQFLYKGEGLNKTAIGDYLGERDEFNIQVLHAFVELHEFTDLNLVQALRQFLWSFRLPGEAQKIDRMMEAFAQRYCQCNNGVFQSTDTCYVLSFAIIMLNTSLHNPNVKDKPTVERFIAMNRGINDGGDLPEELLRNLYESIKNEPF
B2: 6xHis ARNO_(2-252) (domain or fragment, human, UniProt Q99418 2-252, looked up)
chain: EDGVYEPPDLTPEERMELENIRRRKQELLVEIQRLREELSEAMSEVEGLEANEGSKTLQRNRKMAMGRKKFNMDPKKGIQFLVENELLQNTPEEIARFLYKGEGLNKTAIGDYLGEREELNLAVLHAFVDLHEFTDLNLVQALRQFLWSFRLPGEAQKIDRMMEAFAQRYCLCNPGVFQSTDTCYVLSFAVIMLNTSLHNPNVRDKPGLERFVAMNRGINEGGDLPEELLRNLYDSIRNEPFKIPEDDGND
B3: 6xHis Grp1_(13-248) (domain or fragment, mouse, UniProt O08967 13-248, looked up)
chain: PEDLSLEEREELLDIRRRKKELIDDIERLKYEIAEVMTEIDNLTSVEESKTTQRNKQIAMGRKKFNMDPKKGIQFLIENDLLQSSPEDVAQFLYKGEGLNKTVIGDYLGERDDFNIKVLQAFVELHEFADLNLVQALRQFLWSFRLPGEAQKIDRMMEAFASRYCLCNPGVFQSTDTCYVLSFAIIMLNTSLHNHNVRDKPTAERFITMNRGINEGGDLPEELLRNLYESIKNEPF

Experiments:
6xHis Grsp1_(2-400) = biological target: T1, 6xHis Grsp1_(2-400) (mouse, UniProt Q920B0-2 2-400); assay: SEC
T1 sequence (looked up): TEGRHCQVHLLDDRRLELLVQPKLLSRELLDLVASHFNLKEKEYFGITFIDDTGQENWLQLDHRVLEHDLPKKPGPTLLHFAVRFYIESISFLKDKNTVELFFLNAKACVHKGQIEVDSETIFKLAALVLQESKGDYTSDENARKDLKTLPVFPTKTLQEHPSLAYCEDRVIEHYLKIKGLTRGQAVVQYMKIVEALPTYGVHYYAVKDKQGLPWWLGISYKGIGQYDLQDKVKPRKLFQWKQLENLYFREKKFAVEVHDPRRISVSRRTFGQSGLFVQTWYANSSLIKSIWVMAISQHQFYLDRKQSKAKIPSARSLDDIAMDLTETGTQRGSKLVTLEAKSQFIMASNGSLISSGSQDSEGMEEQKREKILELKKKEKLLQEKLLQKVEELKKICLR

AUC = biological target: the molecule itself; assay: AUC
SEC = biological target: the molecule itself; assay: SEC

Row | Binder | percent of Grsp1_(2-400) bound (6xHis Grsp1_(2-400)) [%] | stoichiometry N (AUC) | stoichiometry N (SEC)
1 | B1 | > 90 |  | 
2 | B2 |  | 2 | 
3 | B3 | > 90 |  | 2
